Assay: label from the status in PepcDB records

Sequence	protein production
MASRSASQASDALSQHGCPFSVRAKAFHGGRCMHELIGDITLSILFAWLLGLAAHFFRQPLILAYLIGGFVIGPFGLGWVKSENSISVISELGLIFMLFMIGLEIDLKKIIRAGPVILVAAGGQIAGGVLLGLAFFVGIGLSLGGGHFDALYLTVACALSSTVIIVKVLYEKRELDTLPGRITLGILVLQDIFAILFLAVQPSLADLQISVLLLSIARVVALVATALALSRYVLPWLFHRIARTPELVLLGALAWCFLIGEIAERLHLSREMGALVAGVSLSTFPYALDVTAKVTTLRDFFITLFFVALGMTIPIPNGSVIGLALAIAVFTLASRLLTTFLPLYLMKQGLRASLLPALNLAQISEFSLVVIQTGVAAGHIGTQTASAASFAFVLLAVLSTFVIMRSDPITRRAIGTLTKFGFRDLGQQQSGAEAAAEAGHGAVHRIVILGFFRAASALVSEIEQHTPELLKQISVIDFNPMVYRTLTERGMHVIYGDISNVDTLLHAGVAKAEIIILSVPDSLLKGATNERLVRHVRALNPNAQIVATADLLADVEAMYQAGADYVTVTRLADARELFEVIEAADNGLLSDKRAALDARLAERREVLP	failed
MASSSSSSEHKVFLSFRREDTGRTFVSHLYRSLDQKEIRTYKFENQQAGDGKRISSEVKQAINESRIAVVVISENYVSSVLCLDVLAKIIERLPLIKIETVFYEVDPGDLTRPTGKFADDFRRHEARENRRTVNRWRDALDQLVSITNSNFCSRNWEDDSKMIDDLIIRLINIYFSKYYTPDVDIIAETTVGLDASVLGLMTDIDMKYKLNSLSGSVESGFGLERYALEATSVMDDMSNESPSPTSDDSNGLVGMYRHKKAVYGLLDLESKNQVRTIGIWGFQGVGKTTLAECVFDDISSHFQHYCFLTNANKIYQNRISPSLLKHLTRRRSSEDIFDAIKPSLVNRKVLFVVDGVDATYNEQFNDAMKVTRWLGPGSRIIMTSRFKSSLKFGGAKYEMECLRYEEALQLFSLYAFKKTYPLIGFELFSIRAVHFAGRLPLSLKVLGSFLYDKDEESWKRTLHKLEASQDNDRRYVSNYIGAGEYLPRRQIELEQYVSPDEEEYSPSYIMSL	failed
MASTTRPAPTVGFDLDMTLIDSRPGIRACYVELSARTGTYVDADLAVTRLGPPLAEELANWFPAEEIEAVADLYREIYPAYAIEPTLALPGAREAVTAVRGAGGRAVVVTAKYEPNAKLHLAHLGIEPDAVIGGLWAEQKAVALREHDADVYVGDHVGDVRGARAAGARSVAVASGPCDAGELRAAGADVVLADLTAFPEWLAAYRDGEGDAEGLDAARA	failed
MASTVDSNFFSSVPALHSNLGLLSPDQIELAKILLENGQSHLFQQWPELGVDDKEKLAFFDQIARLNSSYPGGLAAYIKTAKELLADSKVGKNPYDGFSPSVPSGENLTFGTDNFIEMEKRGVVEARNAAFVLVAGGLGERLGYNGIKVALPRETTTGTCFLQHYIESILALQEASNKIDSDGSERDIPFIIMTSDDTHSRTLDLLELNSYFGMKPTQVHLLKQEKVACLDDNDARLALDPHNKYSIQTKPHGHGDVHSLLYSSGLLHKWLEAGLKWVLFFQDTNGLLFNAIPASLGVSATKQYHVNSLAVPRKAKEAIGGISKLTHVDGRSMVINVEYNQLDPLLRASGFPDGDVNCETGFSPFPGNINQLILELGPYKDELQKTGGAIKEFVNPKYKDSTKTAFKSSTRLECMMQDYPKTLPPTARVGFTVMDIWLAYAPVKNNPEDAAKVPKGNPYHSATSGEMAIYRANSLILQKAGVKVEEPVKQVLNGQEVEVWSRITWKPKWGMIFSDIKKKVSGNCEVSQRSTMAIKGRNVFIKDLSLDGALIVDSIDDAEVKLGGLIKNNGWTMESVDYKDTSVPEEIRIRGFRFNKVEQLEKKLTQPGKFSVED	failed
MASYHARQRDPLLDQNMQAMLERRGRELLGIGLLIVAFLFMLILGTYSPEDPGWMVATDEPAQNALGRIGAAISSTLMIIAGKGSWGLPIVAGAWGARFLLHRGEERALGRIVFAVIAIALGSIYAATHVPGSEWTHSFGLGGLFGDTVLGALLEILPLPAAYGLKLLSLLVGGGLVAMGLFVCGFDLRELRQVTQFLLVGLVVTYNAALQLAGRGSVQAAQLMQEKIRAHREGRAAVDAAAVRGEARAEAMPRPRSRFREPEPEPEPAPRMGFLSRLRAQAPEDDPEPVIEEAAWGRPATLRADTTRPAALRSEGLRAEPRHVEPAPAPAQPRTGLLARMPQIIRRVTDPEAELVEHALSDAAANAEGPTEDRIKARINDVIRSRVRQSTGPLSPIAAAIARREPPMARRRSGPAPMVATRRAPMELPPEPPVVAGAGEKIRFASGMVASRMPGAATARLAVSALEADAAPAHAPRLMAEAYDAYEACETGEPILTAREQLAYADEDEAAAYDEAYAAEEEVESYAAEEAAWLPHEDFDDSTDWAPEPAAPAAPMMAPAMAPKPAAAPAARAPAVRPPEAQPKPRFEEQETHYELPPLSLLACPSTIVRNTLSVDALKENARMLESVLEDYGVKGEIVDAQAGPVVTLYELEPAPGLKASRVIGLADDIARSMSALSARVSTVPGRTVIGIELPNVSREKVILREILAARDFGDSSMRLPLALGKDIAGRPVVANLAKMPHLLIAGTTGSGKSVAINTMILSLLYKLTPEECRLIMIDPKMLELSVYDGIPHLLSPVVTDPKKAVVALKWVVGEMEERYRKMSKLGVRNIEGYNGRVSEALEKGEMFKRTIQTGFDEDTGEPVFETEDLQPVRLPFIVVVVDEMADLMMVAGKEIEACIQRLAQMARASGIHLIMATQRPSVDVITGTIKANFPTRISFQVTSKIDSRTILGEQGAEQLLGMGDMLYMAGGAKITRIHGPFVSDEEVEEIVNHLKSFGPPKYMSGVVEGPEDDRADDIDAVLGLGGNTDSEDALYDQAVAIVAKDRKCSTSYIQRKLGIGYNKAARLVEQMEEQGVVTAANHVGKREILLPEQ	failed
MATAASNHYSLLTSSASIVHAEPPGGMQQGAGGYREAQSLVQGDYGALQSNGHPLSHAHQWITALSHGGGGGGGGGGGGGGGGGGGGGDGSPWSTSPLGQPDIKPSVVVQQGGRGDELHGPGALQQQHQQQQQQQQQQQQQQQQQQQQQRPPHLVHHAANHHPGPGAWRSAAAAAHLPPSMGASNGGLLYSQPSFTVNGMLGAGGQSAGLHHHGLRDAHDEPHHADHHPHPHSHPHQQPPPPPPPQGPPGHPGAHHDPHSDEDTPTSDDLEQFAKQFKQRRIKLGFTQADVGLALGTLYGNVFSQTTICRFEALQLSFKNMCKLKPLLNKWLEEADSSSGSPTSIDKIAAQGRKRKKRTSIEVSVKGALESHFLKCPKPSAQEITSLADSLQLEKEVVRVWFCNRRQKEKRMTPPGGTLPGAEDVYGGSRDTPPHHGVQTPVQ	failed
MATANEHLVAWLRDAHAMEEQAITMLTSQSSRLENYPELKTRIDRHLQETKDQAAMLERCLERLDGGTSSIKDISGKIVAFGQGLSGLFVSDEVVKGTLASYTFEHMEIASYRILIAAAEQAGDQETKRVCESILQQEIAMAEWLAQNAGEITRKFLERDQRDVTAKH	not failed
MATAPRPLREQYLHFQPISTRWHDNDIYGHVNNVTYYAFFDTAVNTYLIERGGLDIQGGEVIGLVVSSSCDYFAPVAFPQRIEMGLRVARLGNSSVQYELALFLEGQREACAAGRFVHVFVERRSSRPVAIPQELRDALAALQSSAQ	not failed
MATATTTKTKTKATKKTRAKKATKKRATPKKNLVIVESPAKAKTIEKYLGRNYKVVASVGHIRDLKKSSMSIDFENNYEPQYINIRGKGPLIKELKKEAKKAKKVFLASDPDREGEAISWHLSHILGLEPEDKNRVVFNEITKDAVKNAFAEPRAIDMDLVDAQQARRVLDRIVGYSISPLLWKKVKKGLSAGRVQSVALKLIIDRENEIKAFKPEEYWTIDGAFKKGAKKFQASFYGLDGKKLKLNNNDDVKDVLSRIISDDFNVDKVEKKERRRNAPLPYTTSSLQQDAANKINFRTRKTMMVAQQLYEGINLGSGAQGLITYMRTDSTRISPVAQNQAAEFITERYGSKYSKHGSKVKNSSAAQDAHEAIRPSNVFQTPESIAKYLDKDQLKLYTLIWNRFVASQMTAAVFDTMKVTLSQNGVIFTANGSQIKFDGYMAVYNDSDKNKMLPEMAEGDTIKKVVTTPEQHFTQTPARYSEATLIKTLEENGVGRPSTYAPTLDVIQRRYYVKLVAKRFEPTELGEIVNSLIVEFFPDIVDVKFTAEMEAKLDKVEIGKEQWQKVIDEFFKPFQKELEKAEEGIEKIQIKDEPAGFDCDLCGHPMVIKLGRYGKFYACSNFPDCHNTKAITKEIGVTCPTCGQGQVIERKTKRNRVFYGCDRYPDCEFTSWDIPIGRNCPKSGDYLVEKKVRGGGKQVICSNEECDYKESVIK	failed
MATDAPPPSKEEPPSQEEHRLPSAEEFSEVQQSAEFAELRRSFRSFAFPLTVAFVAWYLLYVLLSNYAGGFMGTKLFGNINVAFVFGIAQFVTTFLIAWWYSRHAAAKLDPKAEAIKTRMEGGA	failed
MATDTTVQLRAGWQGRFYEDFAVGDVYKHPYGRTVTETDNVWFTNLTMNANPMHFNAAYASGTEFDERLVNGLFVIALSVGMSVVDVSANATANLGYDDIQHHAPVFHGDTLFAESEVLSKRESESRPHVGMVTTELRTYTQDGELVLSLERTPMVRKRGLEHHHHHH	not failed
MATESSESEEEGKISGGNYKLIIDDDLREMGKNAAWSVSSYGLQPHLINIQFQKKVKLQLVVLYVDFKLDESYTPSKISIRAGDGFHNLKEIKSVELVKPTGWVCLSLSGTDPRETFCQESR	failed
MATISAKLVKELREKTGAGMMDCKKALTETDGDIDKAIDYLREKGIAKAAKKADRIAAEGLVHVETKGNDAVIVEINSETDFVARNEGFQELVKEIANQVLDTKAETVEALMETTLPNGKSVDERIKEAISTIGEKLSVRRFAIRTKTDNDAFGAYLHMGGRIGVLTVVEGSTDEEAARDVAMHIAAINPKYVSSEQVSEEEINHEREVLKQQALNEGKPENIVEKMVEGRLRKYLQEICAVDQDFVKNPDVTVEAFLKTKGGKLVDFVRYEVGEGMEKREENFADEVKGQMK	failed
MATLKVSDSVPAPSDDAEQLRTAFEGWGTNEDLIISILAHRSAEQRKVIRQAYHETYGEDLLKTLDKELSNDFERAILLWTLEPGERDALLANEATKRWTSSNQVLMEVACTRTSTQLLHARQAYHARYKKSLEEDVAHHTTGDFRKLLVSLVTSYRYEGDEVNMTLAKQEAKLVHEKIKDKHYNDEDVIRILSTRSKAQINATFNRYQDDHGEEILKSLEEGDDDDKFLALLRSTIQCLTRPELYFVDVLRSAINKTGTDEGALTRIVTTRAEIDLKVIGEEYQRRNSIPLEKAITKDTRGDYEKMLVALLGEDDA	not failed
MATNLKSTAKLVKPIQYDEVIEVERIFADPAFIEQHRQRILASFKDAKESALYHELTHIVIKDNLFSCAMNAIVGYFEFNIDEAELKNVMEGLKRDVIQGAEDNTVQAIAEKIIKKALVFNHLQKEWKVEITDEVVKNVISLYYEKTNQSVREYLDDKQKFEGVRTALLEERMVLETINHFKFHFNLTGQLPN	not failed
MATPFWYNAALKVLKPVYRWRIKKRAENEMRYQQECRERFGPFQQPQNRHALWFHAVSVGETNAAQPLIEYYLKLGHPVLVTNTTKTGQARAKSLFLKSPYLELFQAVYLPVDQIFLLKQFFELYQPKLLALVETELWPNLIDQAQHYGVPTFLINARLSEKSAQGYARVSALSNAMLSRLTGLLAQDQSTQQRFIGLGLAREKAQVVGNIKFDIDVPLLFVEQARRLQQQWQLAGRKIMVLASTHAPEEQQLLTALKTHLMADPDLLCIVVPRHPERFDEVFQICQNLQLDTARRSLEQPIQPETQVYLADSMGELWLWYALAQTAFVGGSLNEPGGGHNILEPMALKIPVVIGPRYFNFQTIVDEFRETEAIDIVQDATQAVRQLLHYVSTPNSADQIVDHAQSILQRNKGSLARHIHVLDQYLS	failed
MATPQDKLHTVRLFGTVAADGLTMLDGAPGVRFRLEDKDNTSKTVWVLYKGAVPDTFKPGVEVIIEGGLAPGEDTFKARTLMTKCPLEHHHHHH	not failed
MATRMTTIRRQTKMAIGQRIKYFRNRIGMTQKQLGEQLGFKGKTSDVRMAQYESEARVPKIDLVKQMSQIFDINTHALTVPDIDTHIGLMHTLFALEDMYGLKVKNVDGQPHLWLDSSISAPSSSVDEMFRAWMEQADKLENGEISKEEYDEWRYKYPELDTYQKRAKVPSQELSDYLVKELTKKEK	failed
